Where “and” joins values, the source holds several entries; their conditions need not be identical. Equal values may be shown once.
Key:
TNF-alpha = TNF-alpha (Homo sapiens, UniProt P01375); experiment: Inhibition of TNF-alpha cytotoxicity against U937 cells; type: cell-based; conditions: constant dose of TNF-alpha at EC50
MDA-MB-231 cells = experiment: MTT proliferation assay, MDA-MB-231; type: cell-based, human; conditions: for Mean Absorbance (570 nM) ± S.E., Overall Mean: 4 experiments;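 on all read-outs here: human cancer cells grown to 90% confluence before treatment, treated groups compared against a vehicle control group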
PANC-1 cells = experiment: MTT proliferation assay, PANC-1; type: cell-based, human; conditions: for Mean Absorbance (570 nM) ± S.E., Overall Mean: 3 experiments; for Mean Absorbance (570 nM) ± S.E.: single experiments
[1] = MDA-MB-231, day 3, 10.0 μg/ml, single experiments
[2] = MDA-MB-231, day 3, 100 μg/ml, single experiments
[3] = MDA-MB-231, day 3 post treatment, 0.5 μg/ml

Chain of TNF-alpha (P01375 77-233 limits assumed): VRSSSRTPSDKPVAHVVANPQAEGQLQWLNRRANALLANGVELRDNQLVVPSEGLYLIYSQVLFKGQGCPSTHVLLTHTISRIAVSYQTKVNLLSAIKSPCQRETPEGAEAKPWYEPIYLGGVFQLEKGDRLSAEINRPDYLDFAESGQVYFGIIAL

B1: anti-TNF-alpha VHH62: anti-TNF-alpha sdAb, SEQ ID NO. 47 (TNF_62, SEQ ID NO. 66) (protein)
VHH: QVQLVESGGGPVQAGETLRLSCTASGFTFAEADMGWYRQAPGHECELVSTITTEGITSEASSYYADSVRGRFTISRDNAKNMVYLQMNSLKPEDTAVYYCAPDPYAYSTYSDYCSWAQGTQGTLVTVSS
modifications: Camelid
inhibition of killing of U937 by TNF-alpha (TNF-alpha): inhibit killing

B2: anti-TNF-alpha VHH69: anti-TNF-alpha sdAb, SEQ ID NO. 46 (TNF_69, SEQ ID NO. 64) (protein)
VHH: EVQLVESGGGSVLAGGSLRLSCVASGFTSRYNYMAWFRQAPGKEREGVATIGTASGSADYYGSVKDRFTISQDNAKNTVYLQMNSLKPEDTAMYYCAARTYGTISLTPSDYRYWGQGTLVTVSS
modifications: Camelid
inhibition of killing of U937 by TNF-alpha (TNF-alpha): inhibit killing

B3: B.VHH14: anti-STAT3 single-domain antibody VHH14, SEQ ID NO. 4, bacterial production (protein)
VHH: QVQLVESGGGSVQAGGSLRLSCVASTYTGCMGWFRQAPGKEREGVAALSSRGFAGHYTDSVKGRFSISRDYVKNAVYLQMNTVKPEDAAMYYCAAREGWECGETWLDRTAGGHTYWGQGTLVTVSS
modifications: Camelid
notes: 4, bacterial production
% Inhibition (MDA-MB-231 cells; MDA-MB-231, 3 days, 10.0 μg/ml, single experiments): 23.1% and 20.0% and 38.5% and 23.3% | % Inhibition (MDA-MB-231 cells; MDA-MB-231, 3 days, 100 μg/ml, single experiments): 57.0% and 42.8% and 62.3% and 60.6% | % Inhibition (MDA-MB-231 cells; MDA-MB-231, 5 days, 0.5 μg/ml): 0% | % Inhibition (MDA-MB-231 cells; MDA-MB-231, 5 days, 1.0 μg/ml): 0% | Mean Absorbance (570 nM) ± S.E., Overall Mean (MDA-MB-231 cells; MDA-MB-231, day 3, 10.0 μg/ml): 0.504 ± 0.021 | Mean Absorbance (570 nM) ± S.E. (MDA-MB-231 cells; [1]): 0.456 ± 0.048 and 0.499 ± 0.018 and 0.502 ± 0.048 and 0.559 ± 0.041 | Mean Absorbance (570 nM) ± S.E., Overall Mean (MDA-MB-231 cells; MDA-MB-231, day 3, 100 μg/ml): 0.302 ± 0.043 | Mean Absorbance (570 nM) ± S.E. (MDA-MB-231 cells; [2]): 0.255 ± 0.005 and 0.357 ± 0.019 and 0.308 ± 0.021 and 0.287 ± 0.021 | Mean Absorbance (570 nM) ± S.E. (MDA-MB-231 cells; [3]): 0.666 ± 0.022 | Mean Absorbance (570 nM) ± S.E., Overall Mean (MDA-MB-231 cells; MDA-MB-231, day 5, 10.0 μg/ml): 0.688 ± 0.131 | Mean Absorbance (570 nM) ± S.E., Overall Mean (MDA-MB-231 cells; MDA-MB-231, day 5, 100 μg/ml): 0.475 ± 0.0690

B4: H.VHH14: anti-STAT3 sdAb VHH14, SEQ ID NO. 4; H. not defined, presumably mammalian production (protein)
VHH: B3 VHH
modifications: Camelid
% Inhibition (MDA-MB-231 cells; MDA-MB-231, 5 days, 0.5 μg/ml): 9.5% | % Inhibition (MDA-MB-231 cells; MDA-MB-231, 5 days, 1.0 μg/ml): 4.9% | % Inhibition (MDA-MB-231 cells; MDA-MB-231, 5 days, 10.0 μg/ml, single experiments): 18.2% | % Inhibition (MDA-MB-231 cells; MDA-MB-231, 5 days, 100 μg/ml, single experiments): 18.9% | Mean Absorbance (570 nM) ± S.E. (MDA-MB-231 cells; [1]): 0.588 ± 0.020 | Mean Absorbance (570 nM) ± S.E. (MDA-MB-231 cells; [2]): 0.416 ± 0.030 | Mean Absorbance (570 nM) ± S.E. (MDA-MB-231 cells; [3]): 0.485 ± 0.040 | Mean Absorbance (570 nM) ± S.E. (MDA-MB-231 cells; MDA-MB-231, day 5, 10.0 μg/ml, single experiments): 0.804 ± 0.015 | Mean Absorbance (570 nM) ± S.E. (MDA-MB-231 cells; MDA-MB-231, day 5, 100 μg/ml, single experiments): 0.797 ± 0.010 | Mean Absorbance (570 nM) ± S.E., Overall Mean (PANC-1 cells; PANC-1, day 3, 10.0 μg/ml): 1.089 ± 0.085 | Mean Absorbance (570 nM) ± S.E. (PANC-1 cells; PANC-1, day 3, 10.0 μg/ml): 0.920 ± 0.133 and 1.183 ± 0.114 and 1.163 ± 0.044 | Mean Absorbance (570 nM) ± S.E., Overall Mean (PANC-1 cells; PANC-1, day 3, 100 μg/ml): 0.906 ± 0.054 | Mean Absorbance (570 nM) ± S.E. (PANC-1 cells; PANC-1, day 3, 100 μg/ml): 0.808 ± 0.239 and 0.993 ± 0.088 and 0.916 ± 0.088 | Mean Absorbance (570 nM) ± S.E., Overall Mean (PANC-1 cells; PANC-1, day 5, 10.0 μg/ml): 1.368 ± 0.247 | Mean Absorbance (570 nM) ± S.E. (PANC-1 cells; PANC-1, day 5, 10.0 μg/ml): 1.859 ± 0.033 and 1.165 ± 0.015 and 1.081 ± 0.103 | Mean Absorbance (570 nM) ± S.E., Overall Mean (PANC-1 cells; PANC-1, day 5, 100 μg/ml): 0.754 ± 0.333
